Where no end group is shown, it is not given here. [ ]: non-standard residue; d: D form. The star is where a group is joined. 5FAM = O=C1OC2(c3ccc(O)cc3Oc3cc(O)ccc32)c2ccc(C(=O)*)cc21; pY = N[C@@H](Cc1ccc(OP(=O)(O)O)cc1)C(=O)O
Tests used:
Assay in all cases: FP
p85β cSH2 (603-712) = target: T1, p85β cSH2 (603-712) (mouse, UniProt O08908 603-712)
T1 chain: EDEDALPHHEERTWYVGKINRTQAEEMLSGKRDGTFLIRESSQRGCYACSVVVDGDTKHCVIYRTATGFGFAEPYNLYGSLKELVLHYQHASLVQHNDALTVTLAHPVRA

p85α cSH2 (614-720) = p85α cSH2 (614-720) (human, UniProt P27986 614-720)
p85α nSH2 (325-430) = p85α nSH2 (325-430) (human, UniProt P27986 325-430)
p85β nSH2 (312-425) = p85β nSH2 (312-425) (mouse, UniProt O08908 312-425)
p85α nSH2 R358M = p85α nSH2 R358M (human, UniProt P27986 325-430, R358M)
Sequence of p85α nSH2 R358M (P27986 325-430 R358M): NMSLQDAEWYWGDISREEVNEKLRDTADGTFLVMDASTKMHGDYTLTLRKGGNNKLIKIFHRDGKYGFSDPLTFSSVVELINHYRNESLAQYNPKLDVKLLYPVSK

Sequence of p85α cSH2 (614-720) (P27986 614-720): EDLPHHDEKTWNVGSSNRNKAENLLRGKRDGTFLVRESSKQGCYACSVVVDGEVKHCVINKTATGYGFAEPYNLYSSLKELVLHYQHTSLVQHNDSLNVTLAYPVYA
Sequence of p85α nSH2 (325-430) (P27986 325-430): as the sequence (P27986 325-430 R358M) above, with M34R counted along it
Sequence of p85β nSH2 (312-425) (O08908 312-425): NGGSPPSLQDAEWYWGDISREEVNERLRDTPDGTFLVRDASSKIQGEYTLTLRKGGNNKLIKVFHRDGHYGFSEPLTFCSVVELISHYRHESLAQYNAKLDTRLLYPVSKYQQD

## 5FAM-SD[pY]MNMTP [CD28 peptide, [5-FAM]-SD-[pY]-MNMTP]
p85β cSH2 (603-712)
  Kd: 100 nM
p85α cSH2 (614-720)
  Kd: 43 nM

## 5FAM-TEDQ[pY]SLVEDE [p85α pY607 peptide, [5-FAM]-TEDQ-[pY]-SLVEDE]
p85α nSH2 (325-430)
  Kd: 2400 nM
p85β nSH2 (312-425)
  Kd: 9000 nM
p85α cSH2 (614-720)
  Kd: 84000 nM

## 5FAM-TEDQ[pY]SLMEDE [p85β pY607 peptide, [5-FAM]-TEDQ-[pY]-SLMEDE]
p85α nSH2 (325-430)
  Kd: 82 nM
p85β nSH2 (312-425)
  Kd: 52 nM
p85α cSH2 (614-720)
  Kd: 656 nM
p85α nSH2 R358M
  Kd: 2900 nM

Reference: publication doi:10.1101/791277 (2019)
